Where “and” joins values, the source holds several entries; their conditions need not be identical. Equal values may be shown once.
Biological target: T1, human NGF (human, UniProt P01138 122-241, limits assumed)
T1 construct: also called hNGF; human nerve growth factor
Assay: binding affinity, method not stated

T1 sequence (P01138 122-241 limits assumed): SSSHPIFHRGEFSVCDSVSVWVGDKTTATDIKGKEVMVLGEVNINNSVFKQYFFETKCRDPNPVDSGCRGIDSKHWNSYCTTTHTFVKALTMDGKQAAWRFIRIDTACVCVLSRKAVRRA

B1: humanized anti-NGF antibody E3 (antibody, V domains shown)
VH: QVQLQESGPGLVKPSETLSLTCTVSGFSLIGYDLNWIRQPPGKGLEWIGIIWGDGTTDYNSAVKSRVTISKDTSKNQFSLKLSSVTAADTAVYYCARGGYWYATSYYFDYWGQGTLVTVS
VL: DIQMTQSPSSLSASVGDRVTITCRASQSISNNLNWYQQKPGKAPKLLIYYTSRFHSGVPSRFSGSGSGTDFTFTISSLQPEDIATYYCQQEHTLPYTFGQGTKLEIK
- Kd: ~0.07 nM and ~0.1 nM

Source: US20070160605A1 (RINAT NEUROSCIENCE, published 2007)
